Measurements as given in US20050136061A1 (published 2005).
No end group written: not given here.

Target: HIV-1 IIIB transmembrane glycoprotein gp41 (HIV-1 IIIB)
Test: cell-based or functional assay

With WQEWEQKITALLEQAQIQQEKNEYELQKLDKWASLWEWF (not fully specified) [T-1249 peptide] the “IC50, inhibition of HIV-1 IIIB infection of MT4-Luc cells (HIV LTR-luciferase reporter assay)” value was about 3.3 nM.
